Bridge positions count the residues as written; N and C are the ends. Ends that are not written are not given here.
B1: Compound 68 (peptide)
peptide: Ac-CRLPWNLQRIGLAC-NH2
modifications: disulfide 1-14
SMILES: CC[C@H](C)[C@@H]1NC(=O)[C@H](CCCNC(=N)N)NC(=O)[C@H](CCC(N)=O)NC(=O)[C@H](CC(C)C)NC(=O)[C@H](CC(N)=O)NC(=O)[C@H](Cc2c[nH]c3ccccc23)NC(=O)[C@@H]2CCCN2C(=O)[C@H](CC(C)C)NC(=O)[C@H](CCCNC(=N)N)NC(=O)[C@@H](NC(C)=O)CSSC[C@@H](C(N)=O)NC(=O)[C@H](C)NC(=O)[C@H](CC(C)C)NC(=O)CNC1=O
B2: Compound 70 (peptide)
peptide: Ac-CRLPWNLQRIALPC-NH2
modifications: disulfide 1-14
SMILES: CC[C@H](C)[C@@H]1NC(=O)[C@H](CCCNC(=N)N)NC(=O)[C@H](CCC(N)=O)NC(=O)[C@H](CC(C)C)NC(=O)[C@H](CC(N)=O)NC(=O)[C@H](Cc2c[nH]c3ccccc23)NC(=O)[C@@H]2CCCN2C(=O)[C@H](CC(C)C)NC(=O)[C@H](CCCNC(=N)N)NC(=O)[C@@H](NC(C)=O)CSSC[C@@H](C(N)=O)NC(=O)[C@@H]2CCCN2C(=O)[C@H](CC(C)C)NC(=O)[C@H](C)NC1=O
B3: Compound 69 (peptide)
peptide: Ac-CRLPWNLQRIGAPC-NH2
modifications: disulfide 1-14
SMILES: CC[C@H](C)[C@@H]1NC(=O)[C@H](CCCNC(=N)N)NC(=O)[C@H](CCC(N)=O)NC(=O)[C@H](CC(C)C)NC(=O)[C@H](CC(N)=O)NC(=O)[C@H](Cc2c[nH]c3ccccc23)NC(=O)[C@@H]2CCCN2C(=O)[C@H](CC(C)C)NC(=O)[C@H](CCCNC(=N)N)NC(=O)[C@@H](NC(C)=O)CSSC[C@@H](C(N)=O)NC(=O)[C@@H]2CCCN2C(=O)[C@H](C)NC(=O)CNC1=O
B4: Compound 67 (peptide)
peptide: Ac-CRLPWNLKRIGLPC-NH2
modifications: disulfide 1-14
SMILES: CC[C@H](C)[C@@H]1NC(=O)[C@H](CCCNC(=N)N)NC(=O)[C@H](CCCCN)NC(=O)[C@H](CC(C)C)NC(=O)[C@H](CC(N)=O)NC(=O)[C@H](Cc2c[nH]c3ccccc23)NC(=O)[C@@H]2CCCN2C(=O)[C@H](CC(C)C)NC(=O)[C@H](CCCNC(=N)N)NC(=O)[C@@H](NC(C)=O)CSSC[C@@H](C(N)=O)NC(=O)[C@@H]2CCCN2C(=O)[C@H](CC(C)C)NC(=O)CNC1=O

Target: T1, His-tagged, full-length PCSK9 (human, UniProt A8T644 31-152; Q8NBP7 153-692)
T1 construct: Target protein of the PCSK9/EGF(A) TR-FRET assay (10 nM); also called His-PCSK9; proprotein convertase subtilisin/kexin type 9
Experiment: TR-FRET competition; competitor EGF(A)-Fc on His-PCSK9

T1 sequence (A8T644 31-152 limits assumed, chain 1 of 2): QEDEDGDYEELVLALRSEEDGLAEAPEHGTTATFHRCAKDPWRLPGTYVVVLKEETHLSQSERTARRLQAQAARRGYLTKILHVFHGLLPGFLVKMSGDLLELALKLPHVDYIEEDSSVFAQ
T1 sequence (A8T644 other isoform, or with tags, fused parts or gaps limits assumed, chain 2 of 2): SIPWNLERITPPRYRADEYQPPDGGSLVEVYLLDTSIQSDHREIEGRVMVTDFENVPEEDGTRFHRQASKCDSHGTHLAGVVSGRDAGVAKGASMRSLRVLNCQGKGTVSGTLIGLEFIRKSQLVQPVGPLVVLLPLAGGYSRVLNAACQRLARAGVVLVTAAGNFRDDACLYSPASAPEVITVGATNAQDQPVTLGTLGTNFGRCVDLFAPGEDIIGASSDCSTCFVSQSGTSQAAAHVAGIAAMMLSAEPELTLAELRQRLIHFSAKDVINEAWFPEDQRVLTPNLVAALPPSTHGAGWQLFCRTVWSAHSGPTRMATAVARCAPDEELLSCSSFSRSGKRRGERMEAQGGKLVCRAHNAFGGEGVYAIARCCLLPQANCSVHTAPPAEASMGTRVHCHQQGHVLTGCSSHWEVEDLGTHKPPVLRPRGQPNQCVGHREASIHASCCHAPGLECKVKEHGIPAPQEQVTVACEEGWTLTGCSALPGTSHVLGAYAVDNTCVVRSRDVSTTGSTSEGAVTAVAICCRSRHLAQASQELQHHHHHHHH

Row | Binder | IC50
1 | Ac-SGCFIPWNLQRIGLLC-NH2 (disulfide 3-16 (inferred)) [Compound 29] | > 50 µM
2 | Ac-SGCRLPWNLQRIGLPC-NH2 (disulfide 3-16 (inferred)) [Compound 30] | > 50 µM
3 | Ac-CFIPWNLQRIGLLC-NH2 (disulfide 1-14 (inferred)) [Compound 31] | > 50 µM
4 | Ac-CRLPWNLQRIGLPC-NH2 (disulfide 1-14 (inferred)) [Compound 32] | > 50 µM
5 | B1 | > 50 µM
6 | B2 | > 50 µM
7 | B3 | > 50 µM
8 | B4 | > 50 µM

Target: T2, proprotein convertase subtilisin/kexin type 9 (PCSK9) (human, UniProt Q8NBP7 31-152)
T2 construct: domain: prodomain; Recombinant; tag not written as a part; also called rec.PCSK9; His-PCSK9
Experiment: phage spot ELISA

T2 sequence (Q8NBP7 31-152 limits assumed, chain 1 of 2): as the sequence (A8T644 31-152 limits assumed, chain 1 of 2) above
T2 sequence (Q8NBP7 153-692 limits assumed, chain 2 of 2): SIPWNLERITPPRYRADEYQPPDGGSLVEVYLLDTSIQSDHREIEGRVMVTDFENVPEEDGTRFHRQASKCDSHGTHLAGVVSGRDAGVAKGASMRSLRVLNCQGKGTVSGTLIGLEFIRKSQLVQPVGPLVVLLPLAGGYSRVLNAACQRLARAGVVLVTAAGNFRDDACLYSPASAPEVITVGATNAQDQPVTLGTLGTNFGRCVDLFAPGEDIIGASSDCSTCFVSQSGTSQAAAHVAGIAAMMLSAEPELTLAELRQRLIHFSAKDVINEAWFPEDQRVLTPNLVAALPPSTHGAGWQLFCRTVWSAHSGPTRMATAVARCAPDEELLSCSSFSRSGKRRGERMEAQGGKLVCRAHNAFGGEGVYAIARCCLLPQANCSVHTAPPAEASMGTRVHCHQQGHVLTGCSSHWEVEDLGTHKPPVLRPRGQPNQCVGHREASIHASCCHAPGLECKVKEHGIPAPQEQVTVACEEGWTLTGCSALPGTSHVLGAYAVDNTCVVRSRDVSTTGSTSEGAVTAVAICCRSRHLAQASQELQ

Row | Binder | binding result
9 | SGCFIPWNLQRIGLLC [SEQ ID NO 383] | binds
10 | SGAGKLDLSG (phage clone without anchor) [SEQ ID NO 377] | binds
11 | SGGSIPWNLERITPPR (phage clone without anchor) [SEQ ID NO 382] | binds
12 | SGEHQFYSYRGVDVYR (phage clone without anchor) [SEQ ID NO 370] | binds
13 | SGACLNHFVSGNMIRC (not fully specified (bridges); cysteine pairing not given here, phage clone without anchor) [SEQ ID NO 371] | binds
14 | SGRCLNHLISGNMNSC (not fully specified (bridges); cysteine pairing not given here) [SEQ ID NO 387] | binds
15 | SGTPEMPAML (phage clone without anchor) [SEQ ID NO 374] | binds
16 | SGVCSDHYIGGKEVRC (not fully specified (bridges); cysteine pairing not given here, phage clone without anchor) [SEQ ID NO 378] | binds
17 | SGLAPTVSDS (phage clone without anchor) [SEQ ID NO 375] | binds
18 | SGDTRSQLSH (phage clone without anchor) [SEQ ID NO 376] | binds
19 | SGGCVKYRGSVSCQESKT (not fully specified (bridges); cysteine pairing not given here, phage clone without anchor) [SEQ ID NO 369] | binds
20 | SGNALWNHDRLT (phage clone without anchor) [SEQ ID NO 379] | binds
21 | SGCWTYLRGGCSVT (not fully specified (bridges); cysteine pairing not given here, phage clone without anchor) [SEQ ID NO 373] | binds
22 | SGSYRGAWSVFGGSTD (phage clone without anchor) [SEQ ID NO 372] | binds
23 | SGDFIPWNLVRIGLLR [SEQ ID NO 385] | binds
24 | SGHASKGMVLSG (phage clone without anchor) [SEQ ID NO 381] | binds
25 | SGGSMPWNLERIFALH [SEQ ID NO 390] | binds
26 | SGRNGSGYINRGIEIW (phage clone without anchor) [SEQ ID NO 380] | binds
27 | SGCRLPWNLQRIGLPC [SEQ ID NO 386] | binds
28 | SGGACPWNLERIGLSC [SEQ ID NO 384] | binds
29 | SGMVYVDRGVRVFT (phage clone without anchor) [SEQ ID NO 368] | binds
30 | SGNCWSSLRGICENLG (not fully specified (bridges); cysteine pairing not given here, phage clone without anchor) [SEQ ID NO 367] | binds
31 | SGACVKPCIAGNIIR (not fully specified (bridges); cysteine pairing not given here) [SEQ ID NO 388] | binds
32 | SGCSDLWNLARIYPMC (not fully specified (bridges); cysteine pairing not given here) [SEQ ID NO 391] | binds

Source: patent publication US20190177366A1 (published 2019)
